Six molecules from patent publication US20240132624A1 (Ablynx, published 2024) can be followed below.

For assay [1], the target named is T1, human serum albumin (human, UniProt P02768 25-609).
T1 construct: also called HSA
In words: SPR pH 6.0.
Method: (§1) The affinity of the purified, multivalent ISVD constructs for human and mouse serum albumin (HSA and MSA, respectively) was determined on the ProteOn XPR36 (BioRad Laboratories, Inc.) instrument. […] The ISVD constructs were injected at 6 different concentrations (between 1 and 500 nM) and allowed to associate for 120 s at 45 μL/min and dissociate for 600s-3600s at 45 μL/min. Evaluation of the sensorgrams was based on the 1:1 Langmuir dissociation model simultaneously fitting on and off-rates.

The target in assay [2] is T2, mouse serum albumin (mouse, UniProt P07724 25-608).
T2 construct: also called MSA
In words: SPR pH 6.0.
Method: as §1

For assay [3], the target named is T1, human serum albumin. In words: SPR pH 7.4.
Method: as §1
In assay [4] the target is T2, mouse serum albumin. The assay is described as follows: SPR pH 7.4.
Method: as §1
The target in assay [5] is T3, cyno FcRn/b2M (cyno, UniProt Q8SPV9 24-297; Q8SPW0 21-119, biotinylated).
T3 construct: bought recombinant biotinylated protein (Immunitrack ITF05 or ACRO FCM-C82W5); also called cFcRn; cFcRn/cb2M
T3 sequence (Q8SPV9 24-297 limits assumed, chain 1 of 2): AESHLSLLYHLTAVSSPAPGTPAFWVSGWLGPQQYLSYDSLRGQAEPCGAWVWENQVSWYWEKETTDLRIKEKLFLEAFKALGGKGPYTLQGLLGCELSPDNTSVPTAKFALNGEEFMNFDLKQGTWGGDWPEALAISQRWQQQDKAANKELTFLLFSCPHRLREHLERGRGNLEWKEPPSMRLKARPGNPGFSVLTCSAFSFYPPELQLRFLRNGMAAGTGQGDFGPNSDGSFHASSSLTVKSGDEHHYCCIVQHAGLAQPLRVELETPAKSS
T3 sequence (Q8SPW0 21-119 limits assumed, chain 2 of 2): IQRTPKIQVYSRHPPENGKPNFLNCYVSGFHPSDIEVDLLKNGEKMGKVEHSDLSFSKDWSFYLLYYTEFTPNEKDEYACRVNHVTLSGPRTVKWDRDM
The assay is described as follows: SPR pH 6.0; pH 6.0; cyno FcRn.
Method: (§2) The affinity of the purified, multivalent ISVD constructs for human and cyno FcRn was determined on the MASS-2 (Sierra sensors, Gmbh) instrument, hFcRn/hb2M and cFcRn/cb2M was captured on a Biotin-tag Capture Chip or a High Capacity Amine Chip (pre-immobilized with neutravidin). The ISVD constructs were injected at 6 different concentrations (between 1 and 4000 nM) and allowed to associate for 120 s at 45 μL/min and dissociate for 600 s-3600 s at 45 μL/min. […] Evaluation of the sensorgrams was based on the 1:1 Langmuir dissociation model simultaneously fitting on and off-rates.

Assay [6] addresses T4, human FcRn/b2M (human, UniProt P61769 21-119, biotinylated).
T4 construct: bought recombinant biotinylated protein (ACRO FCM-H82W4 or Immunitrack ITF01); also called hFcRn; hFcRn/hb2M
In words: SPR pH 6.0; pH 6.0; human FcRn.
Method: as §2

Assay [7] concerns the target T3, cyno FcRn/b2M. In words: SPR pH 6.0; pH 6.0; off-rate of periplasmic extract, cyno FcRn.
Method: (§3) All kinetic measurements have been performed on ProteOn XPR36 (BioRad Laboratories, Inc.), MASS-2 (Sierra sensors, Gmbh) or SPR-32 (Bruker Corporation). […] The phytip purified periplasmic extracts were diluted 1:10 in running buffer (CPA+150 mM NaCl+0.005% Tw20 at pH 5.5, pH 6.0 or pH 7.4) and injected over the ligand surfaces (association: 120 s at 45 μL/min; dissociation: 600s-3600 s at 45 μL/min). Experiments were carried out at 25° C.
For assay [8], the target named is T4, human FcRn/b2M. The assay is described as follows: SPR pH 6.0; pH 6.0; off-rate of periplasmic extract, human FcRn.
Method: as §3
In assay [9] the target is T4, human FcRn/b2M. The assay is described as follows: SPR pH 6.0.
Method: as §2
The target of assay [10] is T3, cyno FcRn/b2M. The assay is described as follows: SPR pH 6.0.
Method: as §2
For assay [11], the target named is T4, human FcRn/b2M. In words: SPR pH 7.4.
Method: as §2
Assay [12] concerns the target T3, cyno FcRn/b2M. The assay is described as follows: SPR pH 7.4.
Method: as §2
The target in assay [13] is T1, human serum albumin. In words: SPR pH 6.0. This is another data set of the same source.
Method: as §1
For assay [14], the target named is T2, mouse serum albumin. In words: SPR pH 6.0. This is another data set of the same source.
Method: as §1
The target in assay [15] is T1, human serum albumin. In words: SPR pH 7.4. This is another data set of the same source.
Method: as §1
Assay [16] concerns the target T2, mouse serum albumin. The assay is described as follows: SPR pH 7.4. The source holds these as a separate data set.
Method: as §1
Assay [17] has as its target T4, human FcRn/b2M. In words: SPR pH 6.0. The source holds these as a separate data set.
Assay [18] has as its target T4, human FcRn/b2M. The assay is described as follows: SPR pH 6.0. This is another data set of the same source.
The target of assay [19] is T3, cyno FcRn/b2M. In words: SPR pH 6.0. This is another data set of the same source.
The target in assay [20] is T3, cyno FcRn/b2M. The assay is described as follows: SPR pH 7.4. The source holds these as a separate data set.
In assay [21] the target is T3, cyno FcRn/b2M. The assay is described as follows: SPR; pH 7.4 vs pH 6.0.
Assay [22] concerns the target T4, human FcRn/b2M. The assay is described as follows: SPR pH 7.4. This is another data set of the same source.
Assay [23] has as its target T4, human FcRn/b2M. In words: SPR; pH 7.4 vs pH 6.0. On the technique in general: In SPR one partner is held on a chip, and binding of the other changes the refractive index at the surface.

Usually Kd stands for the constant that tells how readily two partners part at equilibrium. A low value points to higher affinity. For orientation: koff means the rate constant with which the complex falls apart.

T4 sequence (chain, as listed by the source limits assumed, chain 1 of 2): as the sequence (Q8SPV9 24-297 limits assumed, chain 1 of 2) above, with D39N, Q44E, S99G, G189S, N190S, M217L, T269S counted along it
T4 sequence (P61769 21-119 limits assumed, chain 2 of 2): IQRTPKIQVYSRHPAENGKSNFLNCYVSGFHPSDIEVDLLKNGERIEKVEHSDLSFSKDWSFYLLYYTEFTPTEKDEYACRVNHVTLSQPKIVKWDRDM
T2 sequence (P07724 25-608 limits assumed): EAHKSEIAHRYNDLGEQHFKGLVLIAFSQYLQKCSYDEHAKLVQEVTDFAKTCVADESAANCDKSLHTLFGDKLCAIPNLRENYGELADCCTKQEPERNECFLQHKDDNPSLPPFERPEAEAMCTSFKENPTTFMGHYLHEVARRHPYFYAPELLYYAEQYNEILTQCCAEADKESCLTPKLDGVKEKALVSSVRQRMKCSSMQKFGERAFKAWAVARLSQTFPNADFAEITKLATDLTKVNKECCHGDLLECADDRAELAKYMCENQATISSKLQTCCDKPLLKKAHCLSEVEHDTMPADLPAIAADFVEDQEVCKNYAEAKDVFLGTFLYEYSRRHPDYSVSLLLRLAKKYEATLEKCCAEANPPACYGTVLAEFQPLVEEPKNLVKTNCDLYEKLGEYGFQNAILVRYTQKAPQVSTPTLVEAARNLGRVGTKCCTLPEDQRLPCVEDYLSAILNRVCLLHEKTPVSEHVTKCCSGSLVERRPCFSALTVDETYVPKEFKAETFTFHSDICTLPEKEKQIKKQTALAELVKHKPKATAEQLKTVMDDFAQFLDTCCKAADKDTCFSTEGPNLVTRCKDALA

B1: T026301195 (bispecific antibody, name in Kabat numbering)
chain: DVQLVESGGGVVQPGGSLRLSCAASGFTFSEYDMYWVRQAPGKGLEWVSAISSGGGSTDYADSVKGRFTISRDNSKNTLYLQMNSLRPEDTALYYCAADTLYTSLTSYSYWGQGTLVTVSSGGGGSGGGGSGGGGSGGGGSGGGGSGGGGSGGGGSEVQLVESGGGVVQPGGSLRLSCAASGFTFRSFGMSWVRQAPGKGPEWVSSISGSGSDTLYADSVKGRFTISRDNSKNTLYLQMNSLRPEDTALYYCTIGGSLSRSSQGTLVTVSSA
notes: bispecific ISVD construct; also called T0263018B11(E1D, S31E, A33D, W100cS)-35GS-ALB23002-A
For B1, the dissociation constant Kd with human serum albumin [1] came to 6.1 nM; with mouse serum albumin [2], 77 nM; with human serum albumin [3] it was 13 nM; in the assay with mouse serum albumin [4], 120 nM; in the assay with cyno FcRn/b2M [5], 670 nM; with human FcRn/b2M [6], 680 nM.

B2: T0263018B11 T96E (VHH, name in Kabat numbering)
VHH: EVQLVESGGGVVQPGGSLRLSCAASGFTFSSYAMYWVRQAPGKGLEWVSAISSGGGSTDYADSVKGRFTISRDNSKNTLYLQMNSLRPEDTALYYCAADELYTSLTWYSYWGQGTLVTVSS
notes: FLAG3-His6 tagged
B2: the koff in the assay with cyno FcRn/b2M [7] is 0.0093 s⁻¹; with human FcRn/b2M [8] it was 0.012 s⁻¹.

B3: T026301266 (other)
VHH 1: EVQLVESGGGVVQPGGSLRLSCAASGFTFSSYAMYWVRQAPGKGLEWVSAISSGGGSTDYADSVKGRFTISRDNSKNTLYLQMNSLRPEDTALYYCAADTLYTSLTWYSYWGQGTLVTVSS
VHH 2: EVQLVESGGGVVQPGGSLRLSCAASGFTFRSFGMSWVRQAPGKGPEWVSSISGSGSDTLYADSVKGRFTISRDNSKNTLYLQMNSLRPEDTALYYCTIGGSLSRSSQGTLVTVSSA
notes: tetravalent ISVD construct; also called X-FcRn-Y-ALB23002
For the molecule B3, the Kd in the assay with human FcRn/b2M [9] worked out at 41 nM; with cyno FcRn/b2M [10], 26 nM; with human FcRn/b2M [11], 1600 nM; in the assay with cyno FcRn/b2M [12], 880 nM; with human serum albumin [13], 12 nM; with human serum albumin [15], 8.6 nM. Moreover, the off-rate constant (koff) with mouse serum albumin [14] was found to be 0.053 s⁻¹; with mouse serum albumin [16] it was 0.048 s⁻¹.

B4: T026301079 (VHH, name in Kabat numbering)
VHH: EVQLVESGGGVVQPGGSLRLSCAASGFTFSSYAMYWVRQAPGKGLEWVSAISQGGGSTDYADSVKGRFTISRDNSKNTLYLQMNSLRPEDTALYYCAADTLYTSLTSYSYWGQGTLVTVSS
notes: tagless
In turn, B4 displayed a dissociation rate constant (koff) with human FcRn/b2M [17] of 0.0065 s⁻¹. Also, the dissociation constant Kd with human FcRn/b2M [18] is 120 nM; with cyno FcRn/b2M [19] it was 76 nM; in the assay with cyno FcRn/b2M [20], 5900 nM. Further, in the assay with cyno FcRn/b2M [21], the “KD ratio pH 7.4/6.0” value amounted to 78.

B5: T026301064 (VHH, name in Kabat numbering)
VHH: EVQLVESGGGVVQPGGSLRLSCAASGFTFSSYDMYWVRQAPGKGLEWVSAISQGGGSTDYADSVKGRFTISRDNSKNTLYLQMNSLRPEDTALYYCAADTLYTSLTWYSYWGQGTLVTVSS
notes: tagless
For the molecule B5, the off-rate constant (koff) in the assay with human FcRn/b2M [17] worked out at 0.00046 s⁻¹. For the same molecule, the Kd is 9.4 nM with human FcRn/b2M [18], 3.8 nM in the assay with cyno FcRn/b2M [19], 3700 nM with human FcRn/b2M [22] and 2400 nM with cyno FcRn/b2M [20]. Moreover, the “KD ratio pH 7.4/6.0” value in the assay with human FcRn/b2M [23] was determined as 394; with cyno FcRn/b2M [21], 632.

B6: T026301111 (VHH, name in Kabat numbering)
VHH: EVQLVESGGGVVQPGGSLRLSCAASGFTFSEYAMYWVRQAPGKGLEWVSAISQGGGSTDYADSVKGRFTISRDNSKNTLYLQMNSLRPEDTALYYCAADTLYTSLTWYSYWGQGTLVTVSS
notes: tagless
Consider B6, for which the koff with human FcRn/b2M [17] stood at 0.0032 s⁻¹. Further, the Kd in the assay with human FcRn/b2M [18] amounted to 77 nM; in the assay with cyno FcRn/b2M [19] it was 48 nM; with human FcRn/b2M [22], 5400 nM; in the assay with cyno FcRn/b2M [20], 5000 nM. The “KD ratio pH 7.4/6.0” value came out at 70 in the assay with human FcRn/b2M [23] and 104 with cyno FcRn/b2M [21].
